Measurements reported in the nanobody polyreactivity screen of Harvey et al. (2022).

Assay: yeast display, Sf9 membrane polyspecificity reagent, FACS + sequencing; frameworks hold sequencing errors
In short: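 Using colony PCR, genes from sorted yeast display clones were amplified, then sequenced on MiSeq at 2 × 250 and filtered by CDR length. The clones had been stained with 10% biotinylated, detergent-solubilized Sf9 membrane reagent for 1 hour at 4 °C and sorted by FACS into low and high (top ~1%) gates on anti-HA and streptavidin fluorescence. Polyreactivity labels come from the gate of origin.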

Row | Sequence | polyreactivity (PSR sort gate)
1 | QVQLVESGGGLVQAGGSLRLSCAASGRIFSAYAMGWYRQAPGKERELVAAITLSDGSTYYADSVKGRFTISRDNAKNTVYLQMNSLKPEDTAVYYCNADWYAYPYGYWGQGTQVTVSS | low polyreactivity
2 | QVQLVESGGGLVQAGGSLRLSCAASGRIFSDYAMGWYRQAPGKERELVAAISWGGGRTYYADSVKGRFTISRDNAKNTVYLQMNSLKPEDTAVYYCNRGTVNSWARGYWGQGTQVTVSS | high polyreactivity
3 | QVQLVESGGGLVQAGGSLRLSCAASGRIFSEYAMGWYRQAPGKERELVAAITRRGGSTYYADSVKGRFTISRDNAKNTVYLQMNSLKPEDTAVYYCNALLTGGYQDSYPDDYWGQGTQVTVSS | high polyreactivity
4 | QVQLVESGGGLVQAGGSLRLSCAASGRIFSFNAMGWYRQAPGKERELVAGITDSGGSTYYADSVKGRFTISRDNAKNTVYSQMNSLKPEDTAVYYCNAEWPYSRVRDYFYAYDYWGQGTQVTVSS | low polyreactivity
5 | QVQLVESGGGLVQAGGSLRLSCAASGRIFSFNAMGWYRQAPGKERELVATIRTDGTTNYADSVKGRFTISRDNAKNTVYLQMNSLKPEDSAVYYCATDSGWSTYDYWGQGTQVTVSS | high polyreactivity
6 | QVQLVESGGGLVQAGGSLRLSCAASGRIFSFYSMGWYRQAPAKERELVATISKRAGSTYYADSVKGRFTISRDNAKNTVYLQMNSLKPEDTAVYYCAARKWYYASSRWRDYWGQGTQVTVSS | high polyreactivity
7 | QVQLVESGGGLVQAGGSLRLSCAASGRIFSFYTKGWYRQEPGKERHLVAANSGSGGSTYYADSVKGRFTISRDNAKNTVYLQMISLKPEDTEFYYCAAGYGFRYYLYDYWGQGTQVTVSS | high polyreactivity
8 | QVQLVESGGGLVQAGGSLRLSCAASGRIFSFYTMGWYRQAPGKERELVAAISSGGRTYYADSVKGRFTISRDNEKNTVYLQMNSLKPEDTAVYYCAAGSHYAFYYWGQGTQVTVSS | high polyreactivity
9 | QVQLVESGGGLVQAGGSLRLSCAASGRIFSGNAMGWYRQAPGKERELVAAISRGGSTDYADSVKGRFTISRDNAMNTVYLQMNSLKPEDTAVYYCAARVNGKRRRYDYWGQGTQVTVSS | high polyreactivity
10 | QVQLVESGGGLVQAGGSLRLSCAASGRIFSGNAMGWYRQAPGKERELVAAITWSGSSTFYADSVKGRFTISRDNAKNTVYLQMNSLKPEDTAVYYCAVDSSSPVRPHTDEDYWGQGTQVTVSS | low polyreactivity
11 | QVQLVESGGGLVQAGGSLRLSCAASGRIFSGYAMGWYRQAPGKERELVAAITSGGSTNYADSVKGRFTISRDNAKNTVYLQMNSLKPEDTAVYYCAADSREVSTTAYYYWGQRTQVTVSS | low polyreactivity
12 | QVQLVESGGGLVQAGGSLRLSCAASGRIFSGYAMGWYRQAPGKERELVATITSGGGTYYADSVKGRFTISRDNAKNTVYLQMNSLKPEDTAVYYCNAEKKGSFRKYNYWGQGTQVTVSS | low polyreactivity
13 | QVQLVESGGGLVQAGGSLRLSCAASGRIFSINAMGWYRQAPGKERELVAAITWSGGSTYYADSVKGRFTISRDNAKNTVYLQMNILKPEDTAVYYCAARLPWYIPTPSYRIAGGNYWGQGTQVTVSS | low polyreactivity
14 | QVQLVESGGGLVQAGGSLRLSCAASGRIFSINTMGWYRQAPGKERELVAAISVSGGRTYYADSVKGRFTISRENAKKSVYVQMNSLKPEVTAGYYCGAYGTTRMDYWGQGTQVTVSS | high polyreactivity
15 | QVQLVESGGGLVQAGGSLRLSCAASGRIFSIYAMGWYRQAPGKERELVAAIRSVGDTNYADSVKGRFTISRDNAKNTVYLQMNSLNPEDTAVYYCAAGTSDGGYHYDFWGQGSQVTVSS | high polyreactivity
16 | QVQLVESGGGLVQAGGSLRLSCAASGRIFSIYAMGWYRQAPGKERELVAAISSRGGSTYYADSVKGRFTISRDNAKNTVYLQMNSLKPEDTAVYYCNAVSWEGYDFDYWGQGTQVTVSS | high polyreactivity
17 | QVQLVESGGGLVQAGGSLRLSCAASGRIFSIYAMGWYRQAPGKERELVAAITRGGRTNYADSVKGRFTISRDNAKNTVYLQMNSLKPEDTAVYYCAARRIDGVVKPYDYWGQGTQVTVSS | low polyreactivity
18 | QVQLVESGGGLVQAGGSLRLSCAASGRIFSKNAMGWYRQAPGKEMEFVATISYGDGSTYYADSVKGRFTISRDNAKNTVYLQMNSLKPEDTAVYYCAATIGHNGFDYWGQGTQVTVSS | low polyreactivity
19 | QVQLVESGGGLVQAGGSLRLSCAASGRIFSKNAMGWYRQAPGKVRELVAAISYITGSTYADSVKGRFKISRDNAKNTDYLQMNSLKPEYTAVYYCAASSTWYGYYIYVFRAYDYWGQGTQLTVSS | low polyreactivity
20 | QVQLVESGGGLVQAGGSLRLSCAASGRIFSKYGMGWYRQAPGKETEFVAAISGSGTNTYYADSVKGRFTISRDNAKNTVYLQMNSLKPEDTAVYYCAKRKSVRSTPSYEYWGQGTQVTVSS | high polyreactivity
21 | QVQLVESGGGLVQAGGSLRLSCAASGRIFSLYTMGWYRQAPGKERELVATINRSSVSTRYADSVKGRFTISRDNAKNTGYLQMNSLKPEDTAVYYCAAQRSTRYPLYYWGQGTQVTVSS | high polyreactivity
22 | QVQLVESGGGLVQAGGSLRLSCAASGRIFSLYTMGWYRQAPGKERELVATISIGGSTNYADSVKGRFTISRDNAKNTVYLQMNSLKPEDTAVYYCATDGSIGYNDRYTNDFDYWGQGTQVTVSS | low polyreactivity
